Assay results from the DeepSol protein solubility set.

Assay: soluble on expression in E. coli; label from the status in PepcDB or PDB records

Soluble on expression in E. coli, not soluble:
MMGLLKRLLRVVRAEAHSVVEKLEDPIKITEEGLRELRKQLKEAMEALAQVKASQIRFEREARNEKERAKALVKKAESLLLQAQEGKISPEEAEKLAAELIQKAELHEKNARRLEEEAKRQREMAVKLQAKIDELKVQIAKYEAELKTLKARLATARAVKKVNKQIAKVDPSDTIAMLERMKEKVEEEETLAQAYEELAKQEVALDVESEAEKKLKEVESKQKLEELKKRLGLSLEHHHHHH, MMITRELVLKANREQPPYASILALAASGFSLEKSVQFSEKQQLALNLDGELLSNDVEIARIIAQSTDAADSLLGSSIIDFAVVDDLTNFIADAVTKNDYSLLLGKDFPTKILDNSLTVADFAIFSVAHNNPQLKAKFSGIIDKVLKEPTLAAAHNFVGLYKSAAAPTATASTGKEKKKDEGKFVELPGAEKGKVVVRFPPEASGYLHIGHAKAALLNQYYQQAFEGQLIMRFDDTNPAKENAHFEHVIKEDLSMLNIVPDRWTHSSDHFEMLLTMCEKLLKEGKAFVDDTDTETMRNEREQRQDSRNRSNTPEKNLQLWEEMKKGSPKGLTCCVRMKIDMKSNNGAMRDPTIYRCKPEEHVRTGLKYKVYPTYDFTCPIVDSVEGVTHALRTTEYHDRDDQYYFICDALGLRRPHIWEYARLNMTNTVMSKRKLTWFVDEGHVEGWDDPRLPTVRGVMRRGLTVEGLKQFIVAQGGSRSVVMMEWDKIWAFNKKVIDPVAPRYTALDSTSPLVSIELTDSISDDTSNVSLHPKNAEIGSKDVHKGKKLLLEQVDAAALKEGEIVTFVNWGNIKIGKIEKKGAVITKISATLQLDNTDYKKTTKVTWLGDVKAEAGKTIPVVTADYDHIISKAIIGKDEDWKQFINFDSVHYTKMVGEPAIKNVKKGDIIQIQRKGFYIVDQPYNPKSELSGVETPLLLIAIPDGHTGKEAEKPPKGAPVSAAASSGGSDALQLYNSIEQQGGIVRDLKTKDAKSQATKDAIAKLLDLKKKYKELTGSDHKPGAPPSAPAPTTPSSSESNSALNIYNLIEAQGLLVRELKGKDAKSQATKDAIAKLLELKKQYKEVSGSDHKPGVPPAASVASAPAPAPAAGSTNALDIYHQIESQGALVRELKGKDAKSQATKDAIAKLLALKKQYKEVTGSDHKPGVVPVSAPAPTPLAGGADIAGQIEAQGVLVRDLKNKDSKSQETKDAIAKLLELKKNYKEVTGSDYKPGPAPAAAPAKVTVPAPSVSGGDTLSKQIDDQALLVRELKMKDAKSQETKDAIAKLLQLKKQYKDATGSDYKPAPAQLAASAAAAPAPAPAFDEAALLKEIEEQGAVVRDAKSKDPKSQDSADAINKLLALKANFKKATGKDFPAPSNAQSKKGKKK, MMLRSHPNTLHITKLSHSAIHQLAPSFAQLPHTNHADGQYRLRRYSVIRFIDGQVVELDKHDFMQTDQINHFQGNVVRRFEPLLSTTLKSDGMRELCALFMEANTLPDGQEIEIHQMRIAAVFDETLVAPEGVHQDGFDHIAIVGIDRYNIVGGEIMLYLSSHEAPFFRKVLENGEVAMLADSQLWHNACPIRTVDHQQEGHMDVFVLTAKDGRHALHS, MMMEIEDDEVPSPPSPHPAGTTIGGPNSKRYSDILSLDYCTFRIPYEELNIRFRNGQKDLDRAATGVAKAAELLQKKTAGSNEPVSRESLRRHFDLLIRQVQEARKTVERITQSEIEQLDKITTRADRIHEEFEVTRDSENPRNTEKLERQKFCRFIVWHMLRCGYIEPAKVLVKEMELEDLVDVDVFENMYAVQQALLDGNIQPCLAWCDRHHRKLRKLESRIELVARQQEAVTLIELGNIPEAVAYVKKYIAPIAKGKFTEDLKKTMGAIACTLEQSRLRNPELHAADRYQKCAALFIEEAHRIFEIHGNTALATLIQYGLATQKTPSCHNDEKTPLDKQKCIVCRPDVWPIAENLPYSHVANSRIFCSLSGKLCDDDKNIPFLFPSGHVIGSAAIERLKRDDNKLYDPIHKKLIDEEEALRLYFL, MMNNVKYLSFALILAFSACKSGSASSQEPSEKQDTVKIFNLPQIPVVLNTVEQRTDYMVKHYWDRFDFSDTTYINQAEVPEQAWVDYCDLLEHVPLPVAQTAMKETFNRAEKNRKMLHFFEELADKYLYDPNSPMRNEEFYIPVLEALIASPALDETAKIRPQARLELAQKNRLGTKALNFTYTLDSGVKGTLYQFPAEYTLLFINNPGCHACAEMIEGLKASPVINGFTAAKKLKVLSIYPDEELDEWKKHRNDFAKEWTNGYDKELVIKNKNLYDLRAIPTLYLLDKNKTVLLKDATLQKVEQYLAERG, MMNWKQLISAKRFGMEEFHEERQENRSEFQRDYDRLIFSAPFRRLQNKTQVFPLPGSIFVHNRLTHSLEVSCVGRSLGNDVAKAILERQPELESSFLPEIGSIVSAACLAHDLGNPPFGHSGERAISTFFSEGKGQRLQEKQPDGEQLSPMEWEDLTHFEGNANAFRILTHQFEGRRRGGFVLTYSTLASIVKYPFSSSLAGKKSKFGFFVSEEESYRKIATELGLIQLSEQPLKYARHPLVYLVEAADDICYQMMDIEDAHKLKIITTDETKELLMAFFSEDRQSRLRSTFQIVNDINEQIAYLRSSVIGLLVRECTRVFLEHEQEILAGTFEGALIKHIAEGPAAAYNHCAEISLKRIYRSQDVLDIELAGFRIISTLLELMVDAVTLPGKEKAYSELLTNRVSDQYNIKSPVLYERIQAVLDYISGMTDVFALDLYRKINGNSLPAV, MMQIDRNEKADAWLAHTQREQSGRLTIFLGAAPGVGKTYAMLTRAHELMQQGKQVVVGVVETHGRADTARLIAGLNVIPRRVVEYQDRKLEEMDLDQILHIKPEIVLVDELAHRNVPGSRHEYRWQDVNEILDAGINVYSTLNIQHLESLNDVVYQITGIRVTETVPDALLKRLKDIRLVDLPVPELLERMKHGKIYLDDMAPHALQGFFKPAHLTALRDLAIQTVAGQV, MMQTSRPTLQLLTASACYRDDPTALFHQLCGARPATLLLESAEVDNKQNLKSLLVIDSALRITALGQTVTLEALTRNGASLLPLLDASLPTEVDIQVRPNGRELTFPLINEVQDEDSRLQSLSVFDALRQLLTLVNTPLAEREALFLGGLFAYDLVAGFENLPPLRQDQRCPDFCFYLAETLLVLDHQHRSTRLQASLFTPDSSEYQRLATRLEQLSHQLQQAPHPIPATSVPEMALQCNQSDEEYCNVVSELQVAIREGEIFQVVPSRRFTLPCPSPLAAYQTLKDHNPSPYMFFMQDNDFSLFGASPESALKYDASNRQIEIYPIAGTRPRGRRPNGELDRDLDSRIELEMRTDHKEMAEHLMLVDLARNDLARICEPGSRYVADLTKVDRYSFVMHLVSRVIGTLRQDLDVLHAYQACMNMGTLSGAPKVRAMQLIASNEGSRRGSYGGAVGYFTAHGDLDTCIVIRSAYVEDGIATVQAGAGVVLDSVPQAEADETRNKARAVLRAIATAHHAKEIF, MMRLANGIVLDKDTTFGELKFSALRREVRIQNEDGSVSDEIKERTYDLKSKGQGRMIQVSIPASVPLKEFDYNARVELINPIADTVATATYQGADVDWYIKADDIVLTKDSLEHHHHHH, MMSAYNKLVRDRVPEKILMSGKTYTAQKLTGQAYIQALAKIGTEEIREFASMKEREHALDSLADALEVIISLARAEGASIEDVERLRKQKEIERGGFERGIYLLDVSEE, MMTKTTTVPKNVYELAQERLRIVFNEFDNVYLSFSGGKDSGVLLSLCIDYIRRNNLKIKLGVFHMDYEIQYKMTIDYIARMLEDNKDILEVYRVCVPFRVATCTSMYQSFWRPWEDSKKDLWVRPLPENAMTKEDFPFYNTQMWDYEFQMRFASWLHEKKDAVRTCCLIGIRTQESFNRWRCIYLNRKYQMYHRYRWTSKVGNDIFNAYPIYDWKTTDVWTANGKFKWDYNKLYDYYYW, MMTVAAEIRGSNPEKLLAPVLSAFWDEDESWTLDVYRRHEGYEGLRKALAMAPDDLIAYVKESGLRGRGGAGFPTGMKWQFIPQGDGKPHYLVVNADESEPGTCKDIPLLFANPHSLIEGIVIACYAIRSSHAFIYLRGEVVPVLRRLHEAVREAYAAGFLGENILGSGLDLTLTVHAGAGAYICGEETALLDSLEGRRGQPRLRPPFPAVAGLYACPTVVNNVESIASVPAILNKGKDWFRSMGSEKSPGFTLYSLSGHVAGPGQYEAPLGITLRQLLDMSGGMRPGHRLKFWTPGGSSTPMFTDEHLDVPLDYEGVGAAGSMLGTKALQCFDETTCVVRAVTRWTEFYAHESCGKCTPCREGTYWLVQLLRDIEAGKGQMSDLDKLNDIADNINGKSFCALGDGAASPIFSSLKYFREEYEEHITGRGCPFDPAKSTAWADRTEVKALEHHHHHH

Soluble on expression in E. coli, soluble:
MMELHRRVLEGDEAALKTLVSAAPNIGEVARDVVEHLSPGSYREGGPCAVCGGRLESVIASAVEEGYRLLRAYDIERFVVGVRLERGVAMAEEEVKLAAGAGYGESIKAEIRREVGKLLVSRGGVTVDFDSPEATLMVEFPGGGVDIQVNSLLYKARYWKLARNISQAYWPTPEGPRYFSVEQALWPVLKLTGGERLVVHAAGREDVDARMLGSGRPMIVEVKSPRRRRIPLEELEAAANAGGKGLVRFRFETAAKRAEVALYKEETARVRKVYRALVAVEGGVSEVDVEGLRRALEGAVIMQRTPSRVLHRRPDILRRRRLYSLDCSPLEGAPLMECILEAEGGLYIKELVSGDGGRTRPSFAEVLGREAVCIELDVVWVEHEAPAAPGLEHHHHHH, MMIDDSKVSFVIPTINEEGTIGSVIDGIRSEFPNSEIIVVDTNSTDRTREIARSKGARVIEEPRRGYGRAYQTGIPAASGEIIVCMDGDGTYPTDVVKPLIELLIADRVDFISCDRITFRTSKNYTTLHYVGNMVLNLTIRILFKVRMVDSQSGMWVFRSEIYRKMKNLGNGMSFSQNIKIEAVRHGVFMEIPIRYGVRITKPKLKTWHDGFHNLFALFVKRVSELEHHHHHH, MMKEFNPREIEKKWQKRWEEAGVFKAQEGKPNKFYVLEMFPYPSGRIHMGHVRNYTIGDAIARYLKMRGKNILHPMGWDAFGLPAENAAIKHGIHPAKWTYENIDYMKKQLKILGFSYDWDREIATCDPEYYKWNQWIFLKMLERGIAYRKTAKVNWCPHDQTVLANEQVIEGKCWRCGTPIVQKEVPSWFLRITAYADRLLEDLKKLEGKWPERVIAQQRNWIGRSEGALIRFYVEIEEPEKFLNCVPEELKETLLKEKRIYIDVFTTRPDTVFGATFVVLAPEHPLVPVLACIGERLGNACYSDVENFVEKMKKMSTRERTMEEDKEGVFLGVYATNPANGEKIPVWSANYVLYEYGTGAIMCVPAHDQRDWEFAKKYDLPIKVVVKPEGAWDFEKGAYEGKGTLVNSDGFDGLDSETAKRKITEWLQDRGLGEKKVSYRLRDWNISRQRYWGTPIPVVYCEKCGMVPVPEDQLPVKLPLDVKFTGQGNPLETSEEFVNTTCPKCGGKARRETDTMDTFFDSSWYFLRFCDPKNDREPFSREKVDYWMPVDVYIGGIEHAVLHLLYARFFQKFLKDLGLVRDDEPFEKLITQGMVLKKWVSVKKLLDYLGLSEEDEVEELKKRLEELGARRA, MMNLRSIAMNKPDLVIFFDGQCPLCCNEMRALKTADHQARILLVDVHDTDTMSCYPSIDKQRALSILHGIDQQGQLLYGLDVTVLAWRLVNRHRWLFITRMPILKGISDRMYLLFAKHRMRLSRWFGQTQCQEGVCQKKLEHHHHHH, MMSTPPQNTRPVFSVDGLWKVFGPKAERVPADPELAALSAAELSERTGCTAAVRDVSFDVHKGEVFVVMGLSGSGKSTLVRCLTRLIEPTAGTIAIDGEDVRAMDRTRLRELRRHRASMVFQHFGLLPHRTVLDNVAYGLEIQGLGKAERRERAAEVVAKVGLEGMEQRKPGQLSGGQQQRVGLARALAVDPEVLLFDEPFSALDPLIRRDMQEEVVRLHREEGRTMVFITHDLNEALRLGDRIALMRDGRVVQLGTPEEIVGSPADDYVREFVRDVPREQVMTVRTAMRAASAEEAGSGPAVAPDATVSEAIEAVARAGSPARVVDSGRCVGVVDSEALLDVVAGVGASGPAPAVTAVPPFEPSRDFGNAGAGAAEAAPGDVTGEEVALEHHHHHH
